This note sets out measurements from patent publication US20180036256.

The target of series [1] is GST-LSD1 (UniProt O60341).
Series [2] has as its target GST-LSD1 K114A (UniProt O60341).

With GST-G9A aa786-1210, the “methylation at K114 in vitro (methylation assay, Western blot with anti-LSD1 K114me2)” value in series [1] and in series [2] was “GST-LSD1 but not GST-LSD1 K114A is methylated at K114 by G9A in the presence of SAM” in each case.
